Experimental findings from US11951171B2, “Polypeptide EXP and its drug delivery system as well as extracellular vesicle extraction” (TIANJIN MEDICAL UNIVERSITY, priority 2019, dated 2024) are described below.

The test system of experiment [1] is exosomes. The experiment is described as follows: Competitive binding of CP05 and EXP to exosomes (flow cytometry). As to conditions: peptide alone with exosomes (FIG. 3A, first line). Here is the method: AF750 (APC-Cy7)-labeled CP05 and FAM-labeled CP05 or EXP were co-incubated with exosomes at ratios of 1:1 or 1:5 (mass ratio), and the binding efficiency was detected with flow cytometry. It's shown by the results that when EXP and CP05 were incubated with exosomes at the same time, EXP could compete with CP05 to combine with exosomes, thus reducing the binding efficiency of CP05 and exosomes. (A) Flow cytometry to detect the binding efficiency of EXP or CP05 to exosomes. EXO was used as negative control; EXOCP05 is the binding efficiency of CP05 (FAM, af750) separately labeled by different fluorescence labeling with exosomes. EXOEXP is the binding efficiency of FAM labeled EXP andexosomes. 1:1, 1:5, 1:10 means different mass ratios of AF750 and FAM-EXP/FAM-CP05 are respectively as 1:1, 1:5, 1:10. It's shown by the results of flow cytometryto that the binding efficiency of CP05 alone with EXO was about 70%, while that of EXP and exosomes was 91.5% (flow cytometry to chart: the first line). […] However, it's found by comparing different fluorescence CP05 molecules (flow cytometry to chart: the third line) that, the binding efficiency of EXOCP05 (AF750) remained unchanged with increasing the mass ratio of FAM-CP05. […] Different fluorescence-labeled CP05 (APC-Cy7, FAM) were co-incubated with exosomes, their binding efficiency is detected with flow cytometry. […]

In experiment [2] the target is T1, CD63 (Mus musculus, UniProt P41731).
T1 construct: endogenous in cells; host or cells: C2C12 cells (lysate)
T1 sequence (P41731 1-238): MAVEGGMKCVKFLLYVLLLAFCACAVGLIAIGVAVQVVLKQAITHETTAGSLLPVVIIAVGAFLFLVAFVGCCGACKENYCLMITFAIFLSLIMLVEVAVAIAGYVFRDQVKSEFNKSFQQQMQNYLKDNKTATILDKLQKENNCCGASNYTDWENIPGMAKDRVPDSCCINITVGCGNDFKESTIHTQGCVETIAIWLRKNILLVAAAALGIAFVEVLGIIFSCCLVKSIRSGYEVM
The experiment is described as follows: EXP target detection by co-immunoprecipitation, silver staining and Western blot. The experiment is classed as binding. As to conditions: Flag-tagged peptide on anti-flag beads, C2C12 lysate; band about 45 kD and 25 kD. As for the experimental part: (§1) (A) Silver staining and Western blot were used to detect the interest proteins band obtained by co-immunoprecipitation. Flag-tagged CP05 or EXP was incubated with anti-flag coated beads, and followed by co-incubation with cell lysates after removing the free peptides which were unconjugated with beads. The specific enriched proteins in the cell protein lysate were fished by using the polypeptide. Then the size distribution of the fishing strip was detected by silver staining, and the expression of different Tetraspanin family proteins in the fishing strip was detected by Western blot. […] (B)Immunoprecipitation was used to catch the target of EXP. The results are the same as above. […]
Background: Immunoblotting shows a protein as a band on a membrane.

In experiment [3] the target is T2, CD81 (Mus musculus, UniProt P35762).
T2 construct: endogenous in cells; host or cells: C2C12 cells (lysate)
T2 sequence (P35762 1-236): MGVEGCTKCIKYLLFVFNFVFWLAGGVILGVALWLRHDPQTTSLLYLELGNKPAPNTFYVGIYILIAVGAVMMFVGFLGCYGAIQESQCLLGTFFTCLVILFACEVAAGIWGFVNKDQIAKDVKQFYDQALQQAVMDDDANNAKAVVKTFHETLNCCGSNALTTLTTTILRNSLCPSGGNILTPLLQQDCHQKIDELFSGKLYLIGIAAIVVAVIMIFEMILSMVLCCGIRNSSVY
The experiment is described as above. The experiment is classed as binding. As to conditions: Flag-tagged peptide on anti-flag beads, C2C12 lysate; band about 45 kD and 25 kD. Here is the method:
as §1

As to CRHKMWTVKSRL (EXP), the “binding efficiency of peptide alone with EXO” value in experiment [1] is 91.5%. Moreover, in experiment [2], the “protein band fished from cell lysate, confirmed by Western blot as CD63” value is recorded as “distinct protein bands”. Further, in experiment [3], the “protein band fished from cell lysate, confirmed by Western blot as CD81” value is “distinct protein bands”.
